The text below walks through data of patent US9096654B2, “Peptides capable of modulating the function of TIRC7” (CELLACT PHARMA GMBH, priority 2005, dated 2015).

One assay relates to PBMC. The assay can be described thus: Mixed lymphocyte reaction (MLR): inhibition of proliferation of stimulated PBMC by TIRC7 derived peptides. In kind it is cell-based. Conditions: mitomycin-inactivated PBMC (stimulator), CFSE-stained PBMC (responder), 6 days incubation with peptide in PBS, pH 7.3. How it is done:
As described in Example 1 herein, peptides were tested for their ability to inhibit proliferation of mitomycin-stimulated PBMCs.
Freshly isolated PBMC were inactivated with mitomycin (stimulator), or stained with CFSE (responder). Cells were incubated for 6 days with the peptides as described in FIG. 1, dissolved in PBS and titrated to pH 7.3. Subsequently, an in vitro assay, mixed lymphocyte reaction (MLR), was performed essentially as described in international applications WO99/11782 and WO03/025000 to analyze the potency of the tested TIRC7 derived peptides to inhibit the immune response. For all peptides shown in FIG. 1 substantial inhibition of proliferation could be observed.

For a further assay, the system named is activated T-cells. Conditions: dose dependent, cited from earlier work.

With “D46M: synthetic peptide derived from the third extracellular domain of TIRC7 protein (SEQ ID NO: 3, FIG. 1) (DRQEENKAGLLDLPDASVNGWSSDEEKAGGLDDEEEAELVPSEVLM; TIRC7 peptide)”, the inhibition of proliferation entry in the assay with PBMC is reported as “Particular advantageous”.

B1: A61V: synthetic peptide derived from the third extracellular domain of TIRC7 protein (SEQ ID NO: 4, FIG. 1) (peptide)
chain: ADRQEENKAGLLDLPDASVNGWSSDEEKAGGLDDEEEAELVPSEVLMHQAIHTIEFCLGCV
modifications: TIRC7 peptide
As to B1, the inhibition of proliferation entry in the assay on PBMC is listed as “Particular advantageous”.

B2: TIRC7: in vitro translated T-cell immune response cDNA 7 protein, involved in signal transduction of T-cell activation and/or proliferation (protein, UniProt Q13488 1-830, looked up)
V-type proton ATPase 116 kDa …: MGSMFRSEEVALVQLFLPTAAAYTCVSRLGELGLVEFRDLNASVSAFQRRFVVDVRRCEELEKTFTFLQEEVRRAGLVLPPPKGRLPAPPPRDLLRIQEETERLAQELRDVRGNQQALRAQLHQLQLHAAVLRQGHEPQLAAAHTDGASERTPLLQAPGGPHQDLRVNFVAGAVEPHKAPALERLLWRACRGFLIASFRELEQPLEHPVTGEPATWMTFLISYWGEQIGQKIRKITDCFHCHVFPFLQQEEARLGALQQLQQQSQELQEVLGETERFLSQVLGRVLQLLPPGQVQVHKMKAVYLALNQCSVSTTHKCLIAEAWCSVRDLPALQEALRDSSMEEGVSAVAHRIPCRDMPPTLIRTNRFTASFQGIVDAYGVGRYQEVNPAPYTIITFPFLFAVMFGDVGHGLLMFLFALAMVLAENRPAVKAAQNEIWQTFFRGRYLLLLMGLFSIYTGFIYNECFSRATSIFPSGWSVAAMANQSGWSDAFLAQHTMLTLDPNVTGVFLGPYPFGIDPIWSLAANHLSFLNSFKMKMSVILGVVHMAFGVVLGVFNHVHFGQRHRLLLETLPELTFLLGLFGYLVFLVIYKWLCVWAARAASAPSILIHFINMFLFSHSPSNRLLYPRQEVVQATLVVLALAMVPILLLGTPLHLLHRHRRRLRRRPADRQEENKAGLLDLPDASVNGWSSDEEKAGGLDDEEEAELVPSEVLMHQAIHTIEFCLGCVSNTASYLRLWALSLAHAQLSEVLWAMVMRIGLGLGREVGVAAVVLVPIFAAFAVMTVAILLVMEGLSAFLHALRLHWVEFQNKFYSGTGYKLSPFTFAATDD
modifications: TIRC7 in vitro translated
With B2, the “suppression of proliferation of activated T-cells in MLR” value in the assay on activated T-cells (MLR) was “significantly suppressed”. The “suppression of proliferation of T-cells” value with activated T-cells (in response to alloactivation in a mixed lymphocyte culture or in response to mitogens) is “efficiently suppress”.
